Data: patent publication US20020147306A1, “Peptides that modulate the interaction of B class ephrins and PDZ domains” (priority 1998, published 2002)

What was measured:
[1] = target: T1, GST-FAP-1 PDZ5 binding to ephrin B1 (Homo sapiens, UniProt Q12923); test: Peptide competition of GST-FAP-1 PDZ5 binding to ephrin B1 (GST mixing, immunoblot); conditions: peptide 100 μM, lysates of ephrin B1-transfected Cos-1 cells
T1 construct: made in house; ephrin B1: transiently transfected Cos-1 cells (lysate)
T1 sequence (Q12923 1788-1868 limits assumed): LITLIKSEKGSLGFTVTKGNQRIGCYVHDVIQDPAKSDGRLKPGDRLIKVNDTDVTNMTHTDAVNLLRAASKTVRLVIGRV
Method: FIGS. 4A and 4B. FAP-1 PDZ5 and syntenin binding to ephrin B1 can be blocked by addition of peptides corresponding to the C-terminal sequence of B ephrins. Peptides of the indicated sequence were included at a concentration of 100 μM in incubations of GST fusion proteins with lysates of Cos-1 cells transfected with ephrin B1. Associated proteins were separated on a 10% polyacrylamide/SDS gel and analyzed by immunoblotting with antibodies against ephrin B1. FIG. 4A, Competition of FAP-1 PDZ5 binding to ephrin B1 using the indicated peptides. A peptide of sequence DHQpYpYND was added at a concentration of 100 μM as a negative control. Immunoprecipitation of ephrin B1 was included as a positive control. FIG. 4B, Peptide competition of the binding of full-length syntenin to ephrin B1.
Cos-1 cells were maintained in DMEM supplemented with 10% fetal bovine serum (FBS). Transient transfections were performed using Lipofectin reagent and Opti-MEM medium (Life Technologies Inc.) as outlined by the manufacturer. To reduce phosphorylation of ephrin B1 by binding to endogenously expressed EphB receptors or by stimulation with serum growth factors, transfected cells were transferred from 10 cm to 15 cm plates 24 h after transfection and serum starved in DMEM 0.5% FBS 12 h prior to cell lysis. […]

GRIP PDZ6 = target: T2, GRIP PDZ6 (Mus musculus, UniProt Q925T6); test: Fluorescence polarization binding of fluorescent peptide to GST fusion of GRIP PDZ6
T2 construct: separate GST fusions of GRIP PDZ6 and GRIP PDZ7; made in house
T2 sequence (Q925T6 672-754 limits assumed): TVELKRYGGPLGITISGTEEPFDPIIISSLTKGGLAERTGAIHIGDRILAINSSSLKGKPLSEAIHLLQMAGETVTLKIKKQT
Method: (§1) All fluorescence polarization measurements were conducted at 22° C.

GRIP PDZ7 = target: T3, GRIP PDZ7 (Mus musculus, UniProt Q925T6); test: Fluorescence polarization binding of fluorescent peptide to GST fusion of GRIP PDZ7
T3 construct: separate GST fusions of GRIP PDZ6 and GRIP PDZ7; made in house
T3 sequence (Q925T6 1003-1085 limits assumed): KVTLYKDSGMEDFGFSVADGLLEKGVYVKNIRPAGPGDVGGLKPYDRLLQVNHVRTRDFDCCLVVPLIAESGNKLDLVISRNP
Method: as §1

Substance	blocking of GST-FAP-1 PDZ5 binding to ephrin B1 [1]	interaction with GST fusion of GRIP PDZ6 (GRIP PDZ6)	interaction with GST fusion of GRIP PDZ7 (GRIP PDZ7)
DHQpYpYND	did not decrease binding		
GNIYYKV [fluorescent B ephrin C-terminal peptide]		not detected	not detected
